Our source for the level of VLDLR in muscle of transgenic mice against non-transgenic control littermates values is patent US20110003315A1.

Bounds are passed on as bounds.

The target in this test is mouse VLDLR (skeletal muscle) (mouse) (UniProt P98156). Description: cell-based or functional assay.
Sequence of mouse VLDLR (skeletal muscle) (mouse) (P98156 28-873): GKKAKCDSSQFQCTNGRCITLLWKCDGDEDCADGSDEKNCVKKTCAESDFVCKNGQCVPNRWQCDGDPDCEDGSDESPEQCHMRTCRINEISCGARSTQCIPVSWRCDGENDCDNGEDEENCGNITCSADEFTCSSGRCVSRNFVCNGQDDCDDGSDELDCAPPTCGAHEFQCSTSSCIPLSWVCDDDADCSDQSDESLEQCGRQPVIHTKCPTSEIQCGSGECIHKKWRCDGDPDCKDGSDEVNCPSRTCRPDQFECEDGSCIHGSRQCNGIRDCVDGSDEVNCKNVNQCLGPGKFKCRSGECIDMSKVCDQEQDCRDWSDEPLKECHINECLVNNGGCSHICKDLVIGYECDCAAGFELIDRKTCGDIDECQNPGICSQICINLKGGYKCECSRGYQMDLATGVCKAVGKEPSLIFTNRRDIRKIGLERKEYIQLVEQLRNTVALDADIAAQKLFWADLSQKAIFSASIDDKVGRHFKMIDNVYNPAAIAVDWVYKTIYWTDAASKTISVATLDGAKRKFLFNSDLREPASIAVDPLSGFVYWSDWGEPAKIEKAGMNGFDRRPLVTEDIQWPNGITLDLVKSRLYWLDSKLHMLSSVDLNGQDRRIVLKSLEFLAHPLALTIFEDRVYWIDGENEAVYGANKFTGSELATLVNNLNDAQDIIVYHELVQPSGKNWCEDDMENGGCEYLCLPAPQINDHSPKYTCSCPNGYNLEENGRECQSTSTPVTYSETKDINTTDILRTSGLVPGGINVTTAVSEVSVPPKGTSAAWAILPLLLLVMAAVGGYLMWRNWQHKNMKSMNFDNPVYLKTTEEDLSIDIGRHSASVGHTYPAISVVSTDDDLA

Turning to “wild type human PCSK9 with C-terminal V5 tag (from UniProt Q8NBP7 31-692) (enzyme)”, the level of VLDLR in muscle of transgenic mice against non-transgenic control littermates is < 3 fold.
